T1: Human CD137 shuffle 5 (amino acids 48-88 replaced by African elephant CD137) (human, amino acids 48-88 from African …, UniProt Q07011 24-255)
T1 construct: also called shuffle construct 5
T1 chain: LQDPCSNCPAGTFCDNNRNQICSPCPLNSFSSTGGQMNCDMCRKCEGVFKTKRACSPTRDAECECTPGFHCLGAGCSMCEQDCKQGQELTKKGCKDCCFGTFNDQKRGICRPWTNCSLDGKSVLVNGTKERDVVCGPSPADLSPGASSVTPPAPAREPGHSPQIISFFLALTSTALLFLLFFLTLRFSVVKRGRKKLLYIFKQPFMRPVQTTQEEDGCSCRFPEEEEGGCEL

T2: Human CD137 shuffle 4 (amino acids 89-114 replaced by wild boar CD137) (human, amino acids 89-114 from wild boar, UniProt Q07011 24-255)
T2 construct: also called shuffle construct 4
T2 chain: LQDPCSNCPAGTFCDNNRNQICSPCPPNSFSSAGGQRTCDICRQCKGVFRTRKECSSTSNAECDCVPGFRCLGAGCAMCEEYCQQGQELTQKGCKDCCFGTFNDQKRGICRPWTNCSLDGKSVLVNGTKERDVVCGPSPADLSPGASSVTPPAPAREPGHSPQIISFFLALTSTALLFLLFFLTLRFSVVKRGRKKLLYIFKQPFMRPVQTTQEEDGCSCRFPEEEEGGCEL

T3: Human CD137 shuffle 2 (amino acids 139-161 replaced by wild boar CD137) (human, amino acids 139-161 from wild …, UniProt Q07011 24-255)
T3 construct: also called shuffle construct 2
T3 chain: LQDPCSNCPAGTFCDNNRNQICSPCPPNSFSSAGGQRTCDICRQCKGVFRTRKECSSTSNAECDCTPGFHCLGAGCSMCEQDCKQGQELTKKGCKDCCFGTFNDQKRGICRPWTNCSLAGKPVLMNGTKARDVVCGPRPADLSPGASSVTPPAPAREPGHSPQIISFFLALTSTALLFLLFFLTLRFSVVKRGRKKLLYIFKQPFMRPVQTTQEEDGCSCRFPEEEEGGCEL

T4: Human CD137 shuffle 1 (amino acids 162-186 replaced by wild boar CD137) (human, amino acids 162-186 from wild …, UniProt Q07011 24-255)
T4 construct: also called shuffle construct 1
T4 chain: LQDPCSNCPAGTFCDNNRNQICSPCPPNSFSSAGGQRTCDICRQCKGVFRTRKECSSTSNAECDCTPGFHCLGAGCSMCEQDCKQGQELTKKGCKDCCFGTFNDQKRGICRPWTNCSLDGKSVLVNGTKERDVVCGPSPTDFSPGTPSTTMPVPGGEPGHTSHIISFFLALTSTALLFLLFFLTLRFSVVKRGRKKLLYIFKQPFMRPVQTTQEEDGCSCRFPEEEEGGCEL

T5: Human CD137 shuffle 3 (amino acids 115-138 replaced by wild boar CD137) (human, amino acids 115-138 from wild …, UniProt Q07011 24-255)
T5 construct: also called shuffle construct 3
T5 chain: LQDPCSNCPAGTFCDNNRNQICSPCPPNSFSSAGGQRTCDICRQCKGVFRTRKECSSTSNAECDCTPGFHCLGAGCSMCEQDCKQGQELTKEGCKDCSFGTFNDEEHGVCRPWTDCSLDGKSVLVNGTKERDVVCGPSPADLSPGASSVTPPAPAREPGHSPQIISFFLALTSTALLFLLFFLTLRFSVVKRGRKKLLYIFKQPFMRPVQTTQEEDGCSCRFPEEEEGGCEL


How the values were obtained:
Human CD137 (TNR9_Human) [1] = biological target: T6, Human CD137 (TNR9_Human) (human, UniProt Q07011 24-255); experiment: flow cytometry, HEK293-T17 cells transiently transfected with human CD137, antibody at 1 µg/mL, APC-labeled F(ab')2 secondary
T6 construct: Full-length human CD137 expressed on HEK293T-17, NF-kB/293/GFP-Luc or K562 cells, or native on T cells; also called hCD137 wt; 4-1BB
Method: (§1) FIG. 4: Binding of CD137 antibody clones to CD137 shuffle constructs expressed on HEK293-T17 cells. HEK293-T17 cells were transfected with the CD137 shuffle constructs, and with human CD137 (hCD137 wt), African elephant of wild boar CD137, as indicated. Binding of the different CD137 antibody clones to these constructs expressed on HEK293-T17 cells was measured by flow cytometry. Staining with polyclonal anti-CD137 antibody is shown as a control.
(§2) 3×10⁶ HEK293T-17 cells were seeded in T75 culture flasks (Greiner Bio-One, cat. no. 658175) in 20 mL RPMI 1640 GlutaMAX medium containing 10% FCS (Biochrom, cat. no. S 0115). After O/N incubation, cells were transiently […] with expression vectors encoding the shuffle constructs or the wild boar, African elephant or human CD137 downstream of a constitutively active human elongation factor-1 alpha (EF-1 alpha) promotor using TransIT®-LT1 Transfection Reagent, Mirus Bio (VWR International, cat. no. 731-0029), according to the manufacturer's instructions. The next day, cells were harvested using 1.5 mL Accutase (Sigma Aldrich, cat. no. A6964) (incubation at 37° C. for 5 min.) and flow cytometry was performed, essentially as described in Example 4, to measure surface expression of the shuffle constructs and the human, African elephant and wild boar CD137 and to measure binding of the antibody clones to the different shuffle constructs. To measure cell surface expression of the constructs, transduced cells were incubated with 1 μg/mL goat polyclonal anti-human CD137 (R&D Systems, cat. no. AF838) in FACS buffer (D-PBS supplemented with 5 mM EDTA [Sigma Aldrich, cat. no. 03690] and 5% (v/v) fetal bovine serum [FBS, Biochrom, cat. no. S 0115]) (4° C., 20 min.), followed by incubation with APC-labeled anti-goat IgG (H+L) (R&D Systems, cat. no. F0108) (4° C., 20 min.). Binding of the different CD137 antibody clones to cells expressing the shuffle constructs was measured by incubation of the transduced cells with 1 μg/mL of the antibody clones, followed by APC-labeled AffiniPure F(ab′)2 Fragment (1:50 final dilution; Jackson, cat. no. 109-136-127).
Target sequence in this assay (Q07011 24-255): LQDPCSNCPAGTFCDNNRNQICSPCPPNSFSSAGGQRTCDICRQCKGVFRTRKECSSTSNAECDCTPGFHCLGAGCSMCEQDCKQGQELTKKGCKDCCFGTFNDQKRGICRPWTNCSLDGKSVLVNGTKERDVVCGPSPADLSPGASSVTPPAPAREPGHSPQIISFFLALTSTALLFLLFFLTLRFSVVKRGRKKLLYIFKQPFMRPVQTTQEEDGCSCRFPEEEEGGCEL

[2] = biological target: T1, Human CD137 shuffle 5 (amino acids …); experiment: flow cytometry on transfected HEK293T-17 cells, 1 µg/mL antibody
Method: as §2

[3] = biological target: T2, Human CD137 shuffle 4 (amino acids …); experiment: as above
Method: as §2

[4] = biological target: T3, Human CD137 shuffle 2 (amino acids …); experiment: as above
Method: as §2

[5] = biological target: T4, Human CD137 shuffle 1 (amino acids …); experiment: as above
Method: as §2

[6] = biological target: T5, Human CD137 shuffle 3 (amino acids …); experiment: as above
Method: as §2

Human CD137 (TNR9_Human) [7] = biological target: T6, Human CD137 (TNR9_Human); experiment: flow cytometry, HEK293-T17 cells transiently transfected with human CD137, antibody at 1 µg/mL, APC-labeled F(ab')2 secondary [cont.]
Method: as §1, §2

[8] = biological target: T1, Human CD137 shuffle 5 (amino acids …); experiment: flow cytometry on transfected HEK293T-17 cells
Method: as §2

[9] = biological target: T2, Human CD137 shuffle 4 (amino acids …); experiment: flow cytometry on transfected HEK293T-17 cells
Method: as §2

| Binder | binding result (Human CD137 (TNR9_Human) [1]) | binding result [2] | binding result [3] | binding result [4] | binding result [5] | binding result [6] | binding result (Human CD137 (TNR9_Human) [7]) | binding result [8] | binding result [9] |
| --- | --- | --- | --- | --- | --- | --- | --- | --- | --- |
| CD137 antibody clone 001 (rabbit) (antibody, human IgG1, kappa, V domains shown, also called Clone 1; CD137 clone 001) VH: QSVEESGGRLVTPGTPLTLTCTVSGFSLSSYAVSWVRQAPGKGLEWIGVIWNNGATHYATWAKGRFTISKASTTVDLKVTSPTTEDTATYFCARSANDAWSTYSDLWGQGTLVTVSS VL: DIVMTQTPASVEAAVGGTVTIKCQASQTITNYLSWYQQKPGQPPKLLIYKASTLTSGVSSRFKGSGSGTEFTLTISDLESDDAATYYCQNYYYGSSSGYGFVFGGGTEVVVKR | binds | binds | binds | binds | binds | binds | – | – | – |
| CD137 antibody clone 012 (rabbit) (antibody, human IgG1, kappa, V domains shown, also called Clone 12; CD137 clone 012) VH: QSVEESGGRLVTPGTPLTLTCTVSGFSLSDYYMTWVRQAPGKGLEYIGIMSGSGSTYYASWAKGRFTISKTSSTTLELKITSPTTEDTAIYFCARDGDYAGWGYATGAFDPWGPGTLVTVSS VL: AAVLTQTPSPVSAAVGGTVTISCQASQSVVGNSLLSWFQKKPGQPPKLLIYSASSLASGVPSRFKGSGSGTQFTLTISDLESDDAATYYCTGRYNSDTDTFVFGGGTEVVVKR | – | binds | binds | binds | binds | binds | binds | – | – |
| CD137 antibody clone 002 (rabbit) (antibody, human IgG1, kappa, V domains shown, also called Clone 2; CD137 clone 002) VH: QSVEESGGRLVTPGTPLTLTCTVSGFSLTYYAVTWVRQPPGKGLEWIGVIYDNGATAFATWAKGRFTMSKNSTTVALKVTSPTTEDTATYFCARSANNAWSTYSNLWGQGTLVTVSS VL: DIVMTQTPSSVSAAVGGTVTINCQASEDISSYLSWYQQKLGQPPKLLIYKASTLESGVPSRFKGSGSGTEYTLTISDLESDDAATYYCQSYYSGSISGYGFVFGGGTGVVVKR | binds | – | binds | binds | binds | binds | – | no binding (tested: 1 µg/mL) | – |
| CD137 antibody clone 003 (rabbit) (antibody, human IgG1, kappa, V domains shown, also called Clone 3; CD137 clone 003) VH: QSVEESGGRLVTPGTPLTLTCTASGFTISSYHMIWVRQAPGEGLEWIGDIYGGTATTDYASWAKGRFTISKTSTTVDLKMTSLTTEDTATYFCARARYSGGSYANYVFNLWGQGTLVTVSS VL: DIVMTQTPASVEAAVGGTVTIKCQASQSISSYLAWYQQKPGQPPKLLIYRTSTLESGVPSRFKGSGSGTEFTLTISDLESADAATYYCQGYDWSSSNRYDNTFGGGTEVVVKR | binds | binds | – | binds | binds | binds | – | – | no binding (tested: 1 µg/mL) |
| CD137 antibody clone 006 (rabbit) (antibody, human IgG1, kappa, V domains shown, also called Clone 6; CD137 clone 006) VH: QSVEESGGRLVTPGTPLTLTCTVSGFSLSSYAMSWVRQAPGKGLEWIGIISTSGITYYASWAKGRFTISKTSTMVDLKITSPTTEDTATYFCARLNGFDDYVRYFDFWGLGTLVTVSS VL: AIELTQTPSSVSAAVGGTVTINCQASESIASNLAWYQQKPGQPPKLLIYAASYLASGVPSRFKGSGSGTEYTLTISGVQSADAATYYCQSAFYVSSSDNAFGGGTEVVVKR | binds | – | binds | binds | binds | binds | – | no binding (tested: 1 µg/mL) | – |
| CD137 antibody clone 007 (rabbit) (antibody, human IgG1, kappa, V domains shown, also called Clone 7; CD137 clone 007) VH: QSLEESGGRLVTPGTPLTLTCTASGFSLSSYDVSWVRQAPGKGLEYIGFIGSDGSAHYATWVKGRFTISKTSTTVDLKITSPTTEDTATYFCARDWNDYWAHDLWGPGTLVTVSS VL: AQVLTQTTSPVSAAVGGTVTINCQASQIVTSKSALSWYQQKPGQPPRLLIYKASTLASGVPSRFSGSGSGTQFTLTISDLESDDAATYYCAGGYYNSGDLNPFGGGTEVVVKR | – | binds | – | binds | binds | binds | binds | – | no binding (tested: 1 µg/mL) |
| CD137 antibody clone 008 (rabbit) (antibody, human IgG1, kappa, V domains shown, also called Clone 8; CD137 clone 008) VH: QSLEESGGRLVTPGTPLTLTCTASGFSLSSYDMSWVRQAPGKGLEYIGYISSSGNTYYASWAKSRFTISKTSTTVDLKITSPTTEDTATYFCAREGDYWDFNLWGPGTLVTVSS VL: AQVLTQTPSSVSAAVGGTVTINCQASQSISNLLAWYQQKPGQRPRLLIYRASTLASGVPSRFKGSGSGTEFTLTISDLESEDAATYYCAGGFPGLDTGATFGGGTEAVVTR | – | binds | – | binds | binds | binds | binds | – | no binding (tested: 1 µg/mL) |

Reference: patent publication US20210317225A1 (Genmab, published 2021)
